Measurements reported in US20230303685A1.

Tests used:
[1] = biological target: human SIRPα on hSIRPα-expressing cells (human) (UniProt P78324); assay: flow cytometry, stably transfected CHO cells, antibody titrated, labelled anti-rat or anti-mouse IgG, MFI
[2] = biological target: human SIRPα on hSIRPα-expressing cells (human) (UniProt P78324); assay: flow cytometry, stably transfected CHO cells, antibody titrated, labelled anti-human IgG, MFI

EC50 (read off the curve) [1] [µg/mL] | EC50 (read off the curve) [2] [µg/mL] | Binder
1 |  | Antibody 4 (antibody, V domains shown) VH: QVQLQESGPGLLKPSETLSLTCAVSDYSISSGYYWGWIRQPPGKGLEWIGSIYHSGNTYYNPSLKSRVTILVDTSKNQFSLKLSSVTAADTAVYYCARDKCSTTTCSFDYWGQGTLVTVSS VL: DIQMTQSPSSLSASVGDRVTITCQASQDFSNYLNWYQQKPGKAPKLLIYAASNLETGVPSRFSGSGSGTDFTFTISSLQPEDIAVYYCQQYDNLPYTFGQGTKLEIK
 | 0.2 | Antibody 28 (antibody, V domains shown) VH: QVQLQESGPGLVKPSGTLSLTCAVSGGSISSSNWWSWVRQPPGKGLEWIGEIYHSGSTNYNPSLKSRVTISVDKSKNQFSLKLSSVTAADTAVYYCARRGIWFGVGPWGQGTLVTVSS VL: DIVMTQSPLSLPVTPGEPASISCRSSQSLLHGNGFNYLDWYLQKPGQSPQLLIYLGSNRASGVPDRFTGSGSGTDFTLKISRVEAEDVGVYYCMQGLQTPRTFGQGTKVEIK
0.1 |  | Antibody 11 (antibody, V domains shown) VH: EVQLVESGGGLVQPGGSLRLSCAASGFTFSSYWMHWVRQAPGKGLVWVSRIHNDGSRTSYADSVKGRFTISRDNAKNTLYLQMSSLRAEDTAVYYCTRDPPPYDILTGYPFDYWGQGTLVTVSS VL: DIQMTQSPSSVSASVGDRVTITCRASQDISSWLAWFQQKPGKAPKLLIYGASSLQSGVPSRFSGSGSGTDFTLTISSLQPEDFATYYCQEANSFPYTFGQGTKLEIK
